Results taken from patent publication US20250000976A1 (NATIONAL RESEARCH COUNCIL OF CANADA, published 2025).

T1: hBCMA-ECD-FC5VHH (human, UniProt Q02223 1-54, biotinylated in vivo ; biotinylated in vivo on the tag of the carrier part, which is not in the letters)
T1 construct: Made in HEK-293 cells, monomeric SEC fraction; The methods say about 500 RU captured on an SA chip; the results say immobilised on a CM5 chip; also called hBCMA-FC5; human BCMA-ECD; not shown: FC5 VHH carrier, any linker, and the His and biotinylation tags
T1 sequence: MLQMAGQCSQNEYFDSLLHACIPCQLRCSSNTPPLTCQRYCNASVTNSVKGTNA

B1: hBCMA-2C3 (VHH)
VHH: QVKLEESGGGLVQTGDSLRLACTISGRATDHFVMAWFRRAPGKEREYVATRVWSGGSPYYLDSAKGRFAIAIDNAKNTAYLQMNNLKPEDTAVYYCAATKDIMSRSYDYWGLGTQVTVSS
modifications: single biotin on the C-terminal AviTag
notes: Variant of E7 with the same CDRs; also called VHH #2; not shown: C-terminal His tag and AviTag biotinylation signal from pMRO vector
B2: hBCMA-B5 (VHH)
VHH: QVKLEESGGGLVQPGGSLRLSCAASGSIFGTYNMGWYRQAPGKQRELVAAISSAGNTFYRDSVKGRFTVSRDNAKNTVYLQMDRLKYEDTAVYNCNGAPWADAEVKVYNWGQGTQVTVSS
modifications: single biotin on the C-terminal AviTag
notes: not shown: C-terminal His tag and AviTag biotinylation signal from pMRO vector
B3: hBCMA-F2 (VHH)
VHH: QVKLEESGGGLVKPGGSLRLSCGASGNSFGAYNMGWYRQAPGKQRELVAAISSTGNTFYRDSVRGRFTVSRDNAKSTMSLQMERLKPEDTAVYLCNGAPWGDDPVKVWSWGQGTQVTVSS
modifications: single biotin on the C-terminal AviTag
notes: as for B2
B4: hBCMA-3F2 (VHH)
VHH: QVQLVESGGRLVQTGDSLRLTCEISGHTSNQFVLAWFRRPPGKEREVVATRFWGGGSPYYSDSVRGRFAIAIDDAKNTAYLQMSSLKPEDTAVYYCAATKDILSRGYDYWGQGTQVTVSS
modifications: single biotin on the C-terminal AviTag
notes: as for B2
B5: hBCMA-H1 (VHH)
VHH: QVQLVESGGGLVQPGGSLRLSCAASGSGFGTHVMGWYRQAPGKPRELVAAISSAGSTFYRDSVKGRFTVSRDNAKNTMYLQMDRLKPEDTAVYYCNGAPWADEPVKVWNWGQGTQVTVSS
modifications: single biotin on the C-terminal AviTag
notes: as for B2
B6: hBCMA-D2 (VHH)
VHH: QVQLVESGGGLVQPGGSLRLSCAASGSIFGTYNMGWYRQAPGKQRELVAAISSAGNTFYRDSVKGRFTVSRDNAKNTMYLQMDRLKYEDTAVYNCNGAPWGDALVKVWNWGQGTQVTVSS
modifications: single biotin on the C-terminal AviTag
notes: as for B2
B7: hBCMA-2F10 (VHH)
VHH: QVQLVESGGGLVQSGNSLRLSCSISGHTTKNFVMAWFRRAPGKERAIVATRVWSGGSPWYSESAKGRFTISIDDARNTAYLQMNNLKPEDTAVYYCAATKDIMSRGYVYWGLGTQVTVSS
modifications: single biotin on the C-terminal AviTag
notes: as for B2
B8: hBCMA-VcMRo1(V1/V6) (VHH)
VHH: EVQLQQSGGGLVQAGESLTISCAVFGDPITVATMGWYRQAPGKLRELVAAISSAGSTFYRDSVRGRFTVSRDNAKSTMYLQMDRLKVEDTAVYSCNGAPWGDAPVKVWTWGEGTQVTVSS
modifications: single biotin on the C-terminal AviTag
notes: as for B2

Target: T1, hBCMA-ECD-FC5VHH
Assay: SPR

Question: Does B1 bind?
Answer: Result: binds

Target: T1, hBCMA-ECD-FC5VHH
Assay: SPR (Biacore T200), VHH 20-500 nM over BCMA-ECD surface, 25 C
Method: For surface Plasmon resonance, 15 selected VHHs were passed though size exclusion columns, Superdex 75 (GE Healthcare), respectively, in 10 mM HEPES, pH 7.4, containing 150 mM NaCl, 3 mM EDTA, monomeric sdAb fractions were collected and protein concentrations were determined by measuring absorbance at 280 nm (A280). Analysis were performed with Biacore T200 instrument (GE Healthcare). All measurements were carried out at 25° C. in 10 mM HEPES, pH 7.4, containing 150 mM NaCl, 3 mM EDTA and 0.005% surfactant P20 (GE Healthcare). Approximately 500 RUs of the recombinant monomeric BCMA-ECD (obtained after SEC purification of the BCMA-ECD-FC5VHH) were captured on SA sensor chip (GE Healthcare) at a flow rate of 5 uL/min. Various concentration of the monomeric VHHs (20-500 nM) were injected over BCMA-ECD surface, respectively using an SA surface as a reference at a flow rate of 40 μL/min. Surfaces were generated by washing with running buffer. Data were analysed with BIAevaluation 4.1 software.
The monomeric fraction of all 15 VHHs were used for SPR experiment where the human BCMA-ECD or mouse BCMA was immobilized onto the CM5 dextran chip and various VHH concentration (20-500 nM) were passed over the sensor chip.

Question: Which Kd does the source give for B2 here?
Answer: The Kd was 0.22 nM.

Question: And the koff?
Answer: The koff was 0.00237 s⁻¹.

Question: What about the kon of the same binder?
Answer: The kon was 1.08e+07 M⁻¹ s⁻¹.

Question: What does the source list for B3?
Answer: Kd: 0.0683 nM; koff: 0.000349 s⁻¹; kon: 5.11e+06 M⁻¹ s⁻¹

Question: How did the Kd turn out when B4 was run?
Answer: Its Kd is 0.631 nM.

Question: What about the koff of the same binder?
Answer: Its koff is 0.00253 s⁻¹.

Question: And the kon?
Answer: The kon was 4.01e+06 M⁻¹ s⁻¹.

Question: What does the source list for B5?
Answer: Kd: 0.152 nM; koff: 0.000462 s⁻¹; kon: 3.05e+06 M⁻¹ s⁻¹

Question: For B6, which Kd is on record?
Answer: The Kd was 0.403 nM.

Question: And the koff?
Answer: Its koff is 0.000978 s⁻¹.

Question: What about the kon of the same binder?
Answer: Its kon is 2.42e+06 M⁻¹ s⁻¹.

Question: Which Kd does the source give for B7 here?
Answer: Its Kd is 0.216 nM.

Question: What about the koff of the same binder?
Answer: Its koff is 0.00091 s⁻¹.

Question: And the kon?
Answer: Its kon is 4.22e+06 M⁻¹ s⁻¹.

Question: With B8 as the binder, how does the Kd read?
Answer: The Kd was 0.303 nM.

Question: What about the koff of the same binder?
Answer: The koff was 0.000262 s⁻¹.

Question: And the kon?
Answer: The kon was 867000 M⁻¹ s⁻¹.
